Here are results for one protein from paper PMC9131517, “Enzymatic N-Allylation of Primary and Secondary Amines Using Renewable Cinnamic Acids Enabled by Bacterial Reductive Aminases” (ACS Sustainable Chemistry & Engineering, 2022).

What all share (assay): initial rate of NADPH consumption
Holding throughout (format): biochemical, compost metagenome
Holding throughout (settings): 80 mM cyclopropylamine, 0.3 mM NADPH, pH 7.5 (100 mM NaPi), 30 °C

Substrate in data set [1]: O=C/C=C/c1ccccc1
The source says: (§1) initial rate of NADPH consumption on BacRedAm

Substrate in data set [2]: O=CCCc1ccccc1
Text: as §1

Substrate in data set [3]: O=C1CCCCC1
Text: as §1

B1: BacRedAm (compost metagenome) (protein)
chain: MREPIVSAHTERAVESRGADRGSAVTVIGLGSMGSALAGAVLEAGYPTTVWNRTAGKAEPLVRRGAARAATVAEAVSASPTVIACVLDYRALREILSTAGDALAGRTVVNLTNGTPTEARETAAWVEGHGARYLDGGIMAVPEMIGGAESLVLYSGSAEAFETVEPVLRRFGSAMYLGADPGLASLHDLALLAGMYGLFAGFLHAVALVGTEGVRATEFTSSLLIPWLQAMTATLPEAAAQIDAGDYAATGSRLDMQAVALANIVEASRSQGIRPDLMLPIQALVERRVAKGGGGEDIAAVVEEVRG
notes: recombinant, expressed in E. coli BL21, purified
Take B1: the Michaelis constant (Km) (usually the concentration of substrate that gives half-maximal velocity) in data set [1] was found to be 2580 µM; in data set [2] it was 2980 µM; in data set [3] it was 13320 µM. The results for the kcat in data set [1], in data set [2] and in data set [3] were 0.11 s⁻¹, 1.45 s⁻¹ and 5.12 s⁻¹, respectively.
